In patent publication EP1772519A1 one finds RNA binding activity of r-RB47 (gel mobility-shift assay) after incubation with GSSG and r-RB60 data, which are given here for one substance.

Values joined by “and” are separate entries in the source; they are usually repeats but may differ in a detail not shown here. Identical values can stand only once.

For this test, the target named is recombinant RB47 (r-RB47), containing only the four RNA recognition motif domains, histidine tag fus (Chlamydomonas reinhardtii). In words: cell-based or functional assay.

With “recombinant RB60 (r-RB60), histidine tag fusion expressed in E. coli (enzyme)”, the RNA binding activity of r-RB47 (gel mobility-shift assay) after incubation with GSSG and r-RB60 is 5 fold and 6 fold.
